Experiments:
Assay in all cases: Western blot, E. coli lysate, reducing gel
[1] = target: T1, CDH3 protein Fragment 3 (positions 237 to 461 of SEQ ID NO: 38) (human, UniProt P22223 237-461)
T1 construct: Expressed in E. coli Rosetta 2; the lysate was run on a reducing gel and blotted; not shown: N-terminal fusion part supplied by the vector pCold TF (His tag, trigger factor, linker to the KpnI site)
Description: (§1) The above-described Escherichia coli lysate, in which each of the above-mentioned CDH3 protein fragments had been expressed, was charged to 5%-20% gradient gel (Bio-Rad) under reductive conditions, followed by performing electrophoresis. Thereafter, using a blotting device (Bio-Rad), the resultant was transferred on Immobilon P membrane (Millipore). The transfer membrane was lightly washed with TBS-T (0.05% Tween 20, TBS), and it was then shaken in […] BSA-containing TBS for 1 hour. […] The obtained mixture was shaken for 1 hour. Thereafter, the reaction product was washed with TBS-T, and a HRP-anti-mouse IgG antibody (GE Healthcare Biosciences) diluted with 10% Block Ace-containing TBS-T was added thereto, followed by shaking the obtained mixture for 1 hour. Subsequently, the reaction product was washed with TBS-T. Using ECL-Plus (GE Healthcare Biosciences), color development was detected with X-ray film RX-u (Fujifilm Corporation) in accordance with the instructions provided by the manufacturer.

[2] = target: T2, CDH3 protein Fragment 5 (positions 462 to 654 of SEQ ID NO: 38) (human, UniProt P22223 462-654)
T2 construct: Expressed in E. coli Rosetta 2; the lysate was run on a reducing gel and blotted; not shown: N-terminal fusion part supplied by the vector pCold TF (His tag, trigger factor, linker to the KpnI site)
T2 sequence (P22223 462-654 limits assumed): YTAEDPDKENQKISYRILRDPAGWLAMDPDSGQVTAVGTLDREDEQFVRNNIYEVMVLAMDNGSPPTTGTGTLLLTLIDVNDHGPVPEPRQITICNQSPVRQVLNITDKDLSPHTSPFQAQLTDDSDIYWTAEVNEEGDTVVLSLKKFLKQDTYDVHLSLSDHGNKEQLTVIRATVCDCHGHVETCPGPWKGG
Description: as §1

[3] = target: T3, CDH3 protein Fragment 2 (positions 132 to 348 of SEQ ID NO: 38) (human, UniProt P22223 132-348)
T3 construct: Expressed in E. coli Rosetta 2; the lysate was run on a reducing gel and blotted; not shown: N-terminal fusion part supplied by the vector pCold TF (His tag, trigger factor, linker to the KpnI site)
T3 sequence (P22223 132-348 limits assumed): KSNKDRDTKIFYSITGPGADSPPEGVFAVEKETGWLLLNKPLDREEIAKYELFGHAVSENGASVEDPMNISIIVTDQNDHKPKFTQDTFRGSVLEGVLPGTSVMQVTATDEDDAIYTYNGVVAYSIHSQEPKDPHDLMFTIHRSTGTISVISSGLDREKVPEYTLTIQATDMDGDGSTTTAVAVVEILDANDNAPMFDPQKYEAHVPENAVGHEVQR
Description: as §1

[4] = target: T4, CDH3 protein Fragment 4 (positions 349 to 550 of SEQ ID NO: 38) (human, UniProt P22223 349-550)
T4 construct: Expressed in E. coli Rosetta 2; the lysate was run on a reducing gel and blotted; not shown: N-terminal fusion part supplied by the vector pCold TF (His tag, trigger factor, linker to the KpnI site)
T4 sequence (P22223 349-550 limits assumed): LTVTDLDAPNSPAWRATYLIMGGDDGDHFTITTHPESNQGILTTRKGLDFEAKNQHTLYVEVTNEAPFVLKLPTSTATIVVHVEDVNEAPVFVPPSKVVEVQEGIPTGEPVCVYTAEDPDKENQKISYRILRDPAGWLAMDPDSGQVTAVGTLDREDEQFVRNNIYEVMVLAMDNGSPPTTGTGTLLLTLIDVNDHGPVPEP
Description: as §1

Measured: binding result

T1 sequence (P22223 237-461 limits assumed): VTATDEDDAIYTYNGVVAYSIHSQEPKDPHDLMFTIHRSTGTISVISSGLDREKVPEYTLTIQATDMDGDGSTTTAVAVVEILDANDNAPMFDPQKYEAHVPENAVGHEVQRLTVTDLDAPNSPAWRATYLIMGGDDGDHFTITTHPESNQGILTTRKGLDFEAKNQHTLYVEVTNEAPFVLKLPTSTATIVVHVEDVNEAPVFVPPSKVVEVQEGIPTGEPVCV

B1: mouse antibody PPAT-057-17 (antibody, V domains shown)
VH: QVKLEESGPVLVAPSQSLSITCTVSGFSLTSYGVHWIRHPPGKGLEWLGVIWAGGNTIYNSALMSRLNISKDNSKSQVFLKMNSLQSDDSAMYYCAKPHYGDYAGFYALDHWGQGTSVTVSS
VL: DVQITQSPSYLAASPGETININCRASKRISKYLAWYQEKPGKTNRLLIYSGSTLQSGIPSRFSGSGSGTDFTLTISSLEPEDFAMYYCQQHNEYPWTFGGGTKLEIK
notes: Mouse monoclonal IgG from a hybridoma; kappa L chain primers were used
no binding: all assays above
